Reference: IntAct's records for PubMed 22921914

B1: Protein SCARECROW (Arabidopsis thaliana (Mouse-ear cress)), Q9M384 (parent)
chain: MAESGDFNGGQPPPHSPLRTTSSGSSSSNNRGPPPPPPPPLVMVRKRLASEMSSNPDYNNSSRPPRRVSHLLDSNYNTVTPQQPPSLTAAATVSSQPNPPLSVCGFSGLPVFPSDRGGRNVMMSVQPMDQDSSSSSASPTVWVDAIIRDLIHSSTSVSIPQLIQNVRDIIFPCNPNLGALLEYRLRSLMLLDPSSSSDPSPQTFEPLYQISNNPSPPQQQQQHQQQQQQHKPPPPPIQQQERENSSTDAPPQPETVTATVPAVQTNTAEALRERKEEIKRQKQDEEGLHLLTLLLQCAEAVSADNLEEANKLLLEISQLSTPYGTSAQRVAAYFSEAMSARLLNSCLGIYAALPSRWMPQTHSLKMVSAFQVFNGISPLVKFSHFTANQAIQEAFEKEDSVHIIDLDIMQGLQWPGLFHILASRPGGPPHVRLTGLGTSMEALQATGKRLSDFADKLGLPFEFCPLAEKVGNLDTERLNVRKREAVAVHWLQHSLYDVTGSDAHTLWLLQRLAPKVVTVVEQDLSHAGSFLGRFVEAIHYYSALFDSLGASYGEESEERHVVEQQLLSKEIRNVLAVGGPSRSGEVKFESWREKMQQCGFKGISLAGNAATQATLLLGMFPSDGYTLVDDNGTLKLGWKDLSLLTASAWTPRS
partner: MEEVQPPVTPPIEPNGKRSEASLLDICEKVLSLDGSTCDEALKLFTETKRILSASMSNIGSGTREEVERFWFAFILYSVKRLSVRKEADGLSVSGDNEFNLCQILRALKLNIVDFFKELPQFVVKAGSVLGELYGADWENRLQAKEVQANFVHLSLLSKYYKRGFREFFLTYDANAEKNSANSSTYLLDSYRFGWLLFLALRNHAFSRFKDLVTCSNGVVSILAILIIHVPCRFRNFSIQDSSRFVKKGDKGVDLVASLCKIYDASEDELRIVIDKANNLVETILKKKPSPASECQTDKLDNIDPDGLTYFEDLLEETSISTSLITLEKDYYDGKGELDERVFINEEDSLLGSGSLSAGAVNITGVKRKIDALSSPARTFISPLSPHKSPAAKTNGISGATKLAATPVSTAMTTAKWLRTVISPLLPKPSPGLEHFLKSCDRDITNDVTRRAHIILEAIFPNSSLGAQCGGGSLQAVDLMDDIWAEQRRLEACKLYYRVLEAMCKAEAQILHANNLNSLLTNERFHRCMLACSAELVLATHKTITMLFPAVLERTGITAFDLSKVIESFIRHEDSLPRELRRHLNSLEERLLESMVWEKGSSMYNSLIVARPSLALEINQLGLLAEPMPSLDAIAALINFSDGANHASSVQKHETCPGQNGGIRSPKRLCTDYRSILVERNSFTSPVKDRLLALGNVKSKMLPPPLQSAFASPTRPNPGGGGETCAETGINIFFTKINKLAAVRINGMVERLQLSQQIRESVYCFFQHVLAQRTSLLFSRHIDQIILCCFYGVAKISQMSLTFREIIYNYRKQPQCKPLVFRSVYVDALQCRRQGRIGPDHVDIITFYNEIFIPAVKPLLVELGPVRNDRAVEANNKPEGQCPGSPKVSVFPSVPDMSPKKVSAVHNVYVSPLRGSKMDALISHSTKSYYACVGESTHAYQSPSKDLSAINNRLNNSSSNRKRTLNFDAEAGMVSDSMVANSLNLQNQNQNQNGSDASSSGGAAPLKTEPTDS

Variants of: B1
Conditions: with rbr1_arath RBR1, Q9LKZ3

effect of a mutation on the interaction	Variant
disrupting interaction strength	L295A;E299A
